The values below come from the Immune Epitope Database (IEDB).

Where only a bound is given, the exact number is not on record here.

In experiment [1] the target is HLA-A*02:02. The experiment is described as follows: IEDB peptide-MHC binding, purified MHC/competitive/radioactivity; ≥ and ≤ were set here for values at or beyond the usual limits of such assays.
The target of experiment [2] is HLA-A*02:03. The experiment is described as above.
The target in experiment [3] is HLA-A*68:02. Put plainly: IEDB peptide-MHC binding, cellular MHC/competitive/fluorescence; ≥ and ≤ were set here for values at or beyond the usual limits of such assays.
The target of experiment [4] is HLA-A*02:06. The description is as above.
The target in experiment [5] is HLA-A*02:01. Put plainly: IEDB peptide-MHC binding, purified MHC/competitive/radioactivity; ≥ and ≤ were set here for values at or beyond the usual limits of such assays.
For experiment [6], the target named is HLA-A*68:02. The description is as above. As to conditions: source organism: Vaccinia virus WR.
For experiment [7], the target named is HLA-A*02:01. The experiment is described as follows: IEDB peptide-MHC binding, cellular MHC/competitive/fluorescence; ≥ and ≤ were set here for values at or beyond the usual limits of such assays. As to conditions: source organism: Vaccinia virus WR.
The mark [8] stands for this setting: source organism: Influenza A virus.
The mark [9] stands for this setting: source organism: Vaccinia virus WR.
Where [10] appears, read: source organism: Mammarenavirus whitewaterense.
[11] abbreviates: source organism: Mammarenavirus brazilense.
The mark [12] stands for this setting: source organism: Mammarenavirus choriomeningitidis.
The mark [13] stands for this setting: source organism: Hepacivirus hominis.

As for ALANTIEV, the half-maximal inhibitory concentration (IC50) worked out at 162 nM in experiment [1] (setting [8]), 59 nM in experiment [2] (setting [8]), 59.3 µM in experiment [3] (setting [8]) and 9.13 µM in experiment [4] (setting [8]).
In the case of ALKNSQAEL, the IC50 in experiment [5] (setting [9]) is 1740 nM; in experiment [1] (setting [9]), 71 nM; in experiment [2] (setting [9]) it was 17 nM; in experiment [3] (setting [9]) it was at least 70 µM; in experiment [4] (setting [9]) it was 33 µM.
Taken in the same sequence, the figures for ALTDVEKRI were 1150 nM, 74 nM, 1490 nM, 23.9 µM and 14.3 µM.
The matching figures for DMDFDLNIFM: 1750 nM, 1150 nM, 5000 nM, 7.3 µM and 5.32 µM.
For the sequence DTGKKELALT, the concentration for half-maximal inhibition (IC50) in experiment [5] (setting [9]) came to 1680 nM; in experiment [1] (setting [9]) it was 1040 nM; in experiment [2] (setting [9]), 262 nM; in experiment [3] (setting [9]), 10 µM; in experiment [4] (setting [9]), 6.8 µM.
The matching figures for DVDMDFDLNI: 4560 nM, 2040 nM, 1520 nM, 8.84 µM and 5.83 µM.
Regarding FLVIAINAM, the IC50 was 23.3 µM in experiment [3] (setting [9]) and at least 70 µM in experiment [4] (setting [9]).
As for GLSASDVDM, the 50% inhibitory concentration (IC50) was 1720 nM in experiment [5] (setting [9]); 497 nM in experiment [1] (setting [9]); 3540 nM in experiment [2] (setting [9]); at least 70 µM in experiment [3] (setting [9]); 13.8 µM in experiment [4] (setting [9]).
The matching figures for GLTTHCTKL: 613 nM, 100 nM, 30 nM, at least 70 µM and 31.6 µM.
The matching figures for GMMQNDYGGM: 705 nM, 103 nM, 589 nM, 26.4 µM and 12 µM.
The matching figures for HIGHHYIWI: 2990 nM, 2560 nM, 899 nM, 19.9 µM and 25.3 µM.
For HLENDKIEDL, the IC50 amounted to 1800 nM in experiment [5] (setting [9]); 526 nM in experiment [1] (setting [9]); 414 nM in experiment [2] (setting [9]); 27.1 µM in experiment [3] (setting [9]); 10.6 µM in experiment [4] (setting [9]).
The matching figures for IINSVSIIL: 2090 nM, 705 nM, 2900 nM, 29.9 µM and 25.9 µM.
Taken in the same sequence, the figures for ILANERYRSA were 802 nM, 104 nM, 18 nM, 26.5 µM and 7.81 µM.
As to INISGYNLSL, the half-inhibitory concentration (IC50) in experiment [5] (setting [10]) was found to be 1830 nM; in experiment [1] (setting [10]), 179 nM; in experiment [2] (setting [10]), 1360 nM; in experiment [3] (setting [10]), 17.4 µM; in experiment [4] (setting [10]), 11.4 µM.
With KCFGNTALA, the IC50 in experiment [5] (setting [11]) was 3330 nM; in experiment [1] (setting [11]), 31 nM; in experiment [2] (setting [11]), 1090 nM; in experiment [3] (setting [11]) it was 25.9 µM; in experiment [4] (setting [11]), at least 70 µM.
Regarding KCMSAALKNL, the IC50 in experiment [5] (setting [12]) came out at 1560 nM; in experiment [1] (setting [12]), 58 nM; in experiment [2] (setting [12]), 193 nM; in experiment [3] (setting [12]), 43.5 µM; in experiment [4] (setting [12]), 14 µM.
With KIMSGEKPSV, the half-maximal inhibitory concentration (IC50) was 1120 nM in experiment [5] (setting [13]); 411 nM in experiment [1] (setting [13]); 1390 nM in experiment [2] (setting [13]); at least 70 µM in experiment [3] (setting [13]); 9.47 µM in experiment [4] (setting [13]).
As for KLDDTGKKEL, the IC50 was found to be 450 nM in experiment [5] (setting [9]); 101 nM in experiment [1] (setting [9]); 139 nM in experiment [2] (setting [9]); 35.2 µM in experiment [3] (setting [9]); 5.53 µM in experiment [4] (setting [9]).
The matching figures for KLFKRERDA: 859 nM, 2390 nM, 985 nM, 35.8 µM and 14.9 µM.
Taken in the same sequence, the figures for KLFKRERDAI were 1480 nM, 92 nM, 120 nM, at least 70 µM and 14.2 µM.
The matching figures for KLKVDSDSGL: 2360 nM, 75 nM, 56 nM, 28.2 µM and 10 µM.
On to LINLVQYRIL, for which the IC50 came to 2220 nM in experiment [5] (setting [9]); 2120 nM in experiment [1] (setting [9]); 2250 nM in experiment [2] (setting [9]); 29.9 µM in experiment [3] (setting [9]); 15.9 µM in experiment [4] (setting [9]).
Regarding LLEMKYALI, the concentration for half-maximal inhibition (IC50) in experiment [5] (setting [9]) stood at 2540 nM; in experiment [1] (setting [9]), 354 nM; in experiment [2] (setting [9]), 135 nM; in experiment [3] (setting [9]) it was 35.8 µM; in experiment [4] (setting [9]), 14.9 µM.
With LLENKSLTIL, the IC50 in experiment [5] (setting [9]) turned out to be 1150 nM; in experiment [1] (setting [9]) it was 185 nM; in experiment [2] (setting [9]), 541 nM; in experiment [3] (setting [9]) it was 21.3 µM; in experiment [4] (setting [9]), 7.43 µM.
Consider LLFLVLIMLI, for which the IC50 in experiment [5] (source organism: SARS-CoV1) was 592 nM; in experiment [1] (source organism: SARS-CoV1) it was 447 nM; in experiment [2] (source organism: SARS-CoV1) it was 3150 nM; in experiment [3] (source organism: SARS-CoV1), 5.1 µM; in experiment [4] (source organism: SARS-CoV1), 8.3 µM.
As for LMELPVKTDI, the IC50 in experiment [5] (setting [9]) was 1330 nM; in experiment [1] (setting [9]), 1510 nM; in experiment [2] (setting [9]) it was 986 nM; in experiment [3] (setting [9]), at least 70 µM; in experiment [4] (setting [9]), 12.9 µM.
Taken in the same sequence, the figures for MAFILGIIIT were 663 nM, 4680 nM, 2830 nM, 5.16 µM and 10.3 µM.
Taken in the same sequence, the figures for NLRCHSAHV were 3060 nM, 384 nM, 11 nM, 8.2 µM and 8.03 µM.
Taken in the same sequence, the figures for NLVQYRILPM were 1440 nM, 3990 nM, 1330 nM, at least 70 µM and 24.5 µM.
For NLYNIRNL, the concentration for half-maximal inhibition (IC50) in experiment [5] (setting [8]) came out at 1340 nM; in experiment [1] (setting [8]), 1330 nM; in experiment [2] (setting [8]), 187 nM; in experiment [3] (setting [8]), 15.3 µM; in experiment [4] (setting [8]) it was 50.8 µM.
Consider QILDNAAKYV, for which the IC50 stood at 3480 nM in experiment [5] (setting [9]); 3930 nM in experiment [1] (setting [9]); 3870 nM in experiment [2] (setting [9]); 35.8 µM in experiment [3] (setting [9]); 11.4 µM in experiment [4] (setting [9]).
Taken in the same sequence, the figures for QLSNNKYVL were 1810 nM, 79 nM, 4940 nM, 12.5 µM and 10.7 µM.
As for RAMAWTVVNSI, the IC50 in experiment [5] (setting [8]) stood at 624 nM; in experiment [1] (setting [8]), 74 nM; in experiment [2] (setting [8]), 66 nM; in experiment [3] (setting [8]) it was 7.51 µM; in experiment [4] (setting [8]) it was 8.06 µM.
Regarding RLNKRSYLI, the IC50 is 23 nM in experiment [1] (setting [8]), 146 nM in experiment [2] (setting [8]), 42.6 µM in experiment [3] (setting [8]) and 18.5 µM in experiment [4] (setting [8]).
With RLRYNLCKYL, the IC50 amounted to 3250 nM in experiment [5] (setting [9]); 261 nM in experiment [1] (setting [9]); 0.3 nM in experiment [2] (setting [9]); 19.2 µM in experiment [3] (setting [9]); 15.7 µM in experiment [4] (setting [9]).
Taken in the same sequence, the figures for RLYNSLKRFT were 873 nM, 1060 nM, 444 nM, 14.6 µM and 7.28 µM.
In the case of RMGAVTTEV, the half-maximal inhibitory concentration (IC50) in experiment [5] (setting [8]) came to 222 nM; in experiment [1] (setting [8]), 90 nM; in experiment [2] (setting [8]) it was 73 nM; in experiment [3] (setting [8]) it was 27.1 µM; in experiment [4] (setting [8]), 5.52 µM.
On to SLALKNSQA, for which the IC50 stood at 2490 nM in experiment [5] (setting [9]); 662 nM in experiment [1] (setting [9]); 459 nM in experiment [2] (setting [9]); 29.6 µM in experiment [3] (setting [9]); 19 µM in experiment [4] (setting [9]).
Taken in the same sequence, the figures for SLKRFTHTTA were 4540 nM, 884 nM, 726 nM, 6.08 µM and 7.31 µM.
The matching figures for SMKGENVFI: 611 nM, 5.5 nM, 19 nM, 9.34 µM and 13.7 µM.
Taken in the same sequence, the figures for VLQQNNSFI were 234 nM, 100 nM, 249 nM, 16.3 µM and 8.69 µM.
Regarding VLQQNNSFII, the IC50 in experiment [5] (setting [9]) was determined as 709 nM; in experiment [1] (setting [9]), 665 nM; in experiment [2] (setting [9]), 1030 nM; in experiment [3] (setting [9]), 16.6 µM; in experiment [4] (setting [9]), 9.63 µM.
Regarding VLTILYYGA, the 50% inhibitory concentration (IC50) in experiment [5] (setting [9]) was found to be 212 nM; in experiment [1] (setting [9]), 1.3 nM; in experiment [2] (setting [9]) it was 18 nM; in experiment [3] (setting [9]), 18.6 µM; in experiment [4] (setting [9]), 6.24 µM.
The matching figures for VMPEKRNVVV: 3920 nM, 3540 nM, 299 nM, 6.74 µM and 27.6 µM.
As for YTKHSMLTNA, the IC50 in experiment [6] amounted to 1420 nM; in experiment [1] (setting [9]), 3900 nM; in experiment [2] (setting [9]), 141 nM; in experiment [7] it was 38.3 µM; in experiment [4] (setting [9]), 7.34 µM.
